# From the supplement of paper PMC9112550, “Optimization of the antimicrobial peptide Bac7 by deep mutational scanning” (BMC Biology, 2022)
# Tested on: Escherichia coli TOP10
# Experiment: shrunken log2 fold change of peptide-encoding DNA abundance (4.5 h post-induction vs induction); higher = less antimicrobial activity (less host growth inhibition)
# Conditions: time post-induction: 4.5 h; library: site-saturation at positions 5, 18, 19, 20
# 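Also: peptides expressed intracellularly from a pBAD plasmid library in pooled LB shake-flask culture, induced with 0.3% L-arabinose, DNA abundance read by NGS, three biological replicates, DESeq2 with apeglm shrinkage.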
row,Sequence,shrunken log2 fold change
1,RRIRSRPPRLPRPRPRPEVCPRP,0.11
2,RRIRARPPRLPRPRPRPYLKPRP,-0.352
3,RRIRTRPPRLPRPRPRPDFNPRP,-0.177
4,RRIRDRPPRLPRPRPRPQFAPRP,-0.0178
5,RRIRARPPRLPRPRPRPGDVPRP,0.194
6,RRIRSRPPRLPRPRPRPQFFPRP,-0.158
7,RRIRHRPPRLPRPRPRPPYSPRP,-0.418
8,RRIRDRPPRLPRPRPRPVISPRP,0.277
9,RRIRWRPPRLPRPRPRPGVFPRP,0.224
10,RRIRVRPPRLPRPRPRPRYQPRP,0.171
11,RRIRHRPPRLPRPRPRPTSYPRP,-0.178
12,RRIRGRPPRLPRPRPRPIGHPRP,0.39
13,RRIRQRPPRLPRPRPRPGRWPRP,0.446
14,RRIRCRPPRLPRPRPRPVERPRP,0.0133
15,RRIRPRPPRLPRPRPRPTPAPRP,0.618
16,RRIRRRPPRLPRPRPRPVEQPRP,0.0679
17,RRIRPRPPRLPRPRPRPAESPRP,0.44
18,RRIRHRPPRLPRPRPRPYFRPRP,-0.296
19,RRIRIRPPRLPRPRPRPKCFPRP,-0.852
20,RRIRQRPPRLPRPRPRPTHAPRP,0.437
21,RRIRVRPPRLPRPRPRPFMQPRP,-0.285
22,RRIRNRPPRLPRPRPRPPTAPRP,0.295
23,RRIRDRPPRLPRPRPRPIQCPRP,0.0299
24,RRIRIRPPRLPRPRPRPGYFPRP,-0.904
25,RRIRWRPPRLPRPRPRPNKIPRP,-0.432

row,Sequence,shrunken log2 fold change
1,RRIRNRPPRLPRPRPRPWPCPRP,-0.185
2,RRIRYRPPRLPRPRPRPSMLPRP,-1.07
3,RRIRDRPPRLPRPRPRPPHSPRP,0.279
4,RRIRPRPPRLPRPRPRPDWNPRP,-0.0666
5,RRIRGRPPRLPRPRPRPYEMPRP,0.0132
6,RRIRLRPPRLPRPRPRPYEVPRP,-0.0159
7,RRIRARPPRLPRPRPRPDGCPRP,0.239
8,RRIRKRPPRLPRPRPRPSCFPRP,0.109
9,RRIRYRPPRLPRPRPRPPEYPRP,0.0412
10,RRIRERPPRLPRPRPRPSCTPRP,-0.815
11,RRIRWRPPRLPRPRPRPQLRPRP,0.0178
12,RRIRQRPPRLPRPRPRPHVTPRP,0.0406
13,RRIRDRPPRLPRPRPRPRHTPRP,0.122
14,RRIRPRPPRLPRPRPRPLYQPRP,-0.0164
15,RRIRMRPPRLPRPRPRPMHTPRP,3.3
16,RRIRARPPRLPRPRPRPVRHPRP,0.399
17,RRIRRRPPRLPRPRPRPMDCPRP,0.00462
18,RRIRERPPRLPRPRPRPFPEPRP,-0.426
19,RRIRARPPRLPRPRPRPVHIPRP,-0.177
20,RRIRMRPPRLPRPRPRPVKDPRP,0.0812
21,RRIRGRPPRLPRPRPRPSMDPRP,0.0712
22,RRIRDRPPRLPRPRPRPEDIPRP,0.0238
23,RRIRNRPPRLPRPRPRPVGCPRP,0.618
24,RRIRSRPPRLPRPRPRPNFMPRP,-0.43
25,RRIRPRPPRLPRPRPRPRNHPRP,-0.196

row,Sequence,shrunken log2 fold change
1,RRIRCRPPRLPRPRPRPKILPRP,-0.0835
2,RRIRERPPRLPRPRPRPGTIPRP,-0.386
3,RRIRIRPPRLPRPRPRPCNSPRP,-0.271
4,RRIRTRPPRLPRPRPRPGKQPRP,-0.184
5,RRIRIRPPRLPRPRPRPMCMPRP,-0.216
6,RRIRYRPPRLPRPRPRPSYQPRP,-1.27
7,RRIRCRPPRLPRPRPRPWEYPRP,0.0155
8,RRIRVRPPRLPRPRPRPNSEPRP,-0.43
9,RRIRARPPRLPRPRPRPAIPPRP,-0.101
10,RRIRARPPRLPRPRPRPPNQPRP,0.691
11,RRIRCRPPRLPRPRPRPWSCPRP,-0.739
12,RRIRARPPRLPRPRPRPNPLPRP,0.32
13,RRIRSRPPRLPRPRPRPYKCPRP,-0.137
14,RRIRCRPPRLPRPRPRPHTMPRP,-0.371
15,RRIRCRPPRLPRPRPRPSKAPRP,0.0693
16,RRIRWRPPRLPRPRPRPDHVPRP,-0.13
17,RRIRKRPPRLPRPRPRPMSFPRP,0.106
18,RRIRMRPPRLPRPRPRPHAWPRP,0.365
19,RRIRARPPRLPRPRPRPYILPRP,-0.983
20,RRIRWRPPRLPRPRPRPEQKPRP,0.0146
21,RRIRRRPPRLPRPRPRPTVHPRP,0.231
22,RRIRCRPPRLPRPRPRPHIDPRP,-0.42
23,RRIRDRPPRLPRPRPRPAYTPRP,-0.00595
24,RRIRTRPPRLPRPRPRPLGMPRP,0.257
25,RRIRLRPPRLPRPRPRPIRTPRP,0.0758

row,Sequence,shrunken log2 fold change
1,RRIRGRPPRLPRPRPRPRMMPRP,0.882
2,RRIRIRPPRLPRPRPRPFMHPRP,-0.0575
3,RRIRIRPPRLPRPRPRPKKIPRP,-0.526
4,RRIRVRPPRLPRPRPRPDSVPRP,-0.28
5,RRIRQRPPRLPRPRPRPDSEPRP,0.138
6,RRIRMRPPRLPRPRPRPKSSPRP,0.763
7,RRIRIRPPRLPRPRPRPWLEPRP,-0.293
8,RRIRCRPPRLPRPRPRPVKTPRP,-0.132
9,RRIRYRPPRLPRPRPRPHYKPRP,-0.316
10,RRIRRRPPRLPRPRPRPGVFPRP,0.278
11,RRIRCRPPRLPRPRPRPEIIPRP,-0.363
12,RRIRPRPPRLPRPRPRPWGQPRP,0.0568
13,RRIRERPPRLPRPRPRPVHDPRP,-0.687
14,RRIRFRPPRLPRPRPRPAWWPRP,0.273
15,RRIRARPPRLPRPRPRPCPEPRP,0.179
16,RRIRCRPPRLPRPRPRPSWIPRP,-0.732
17,RRIRWRPPRLPRPRPRPLMVPRP,-0.0319
18,RRIRHRPPRLPRPRPRPECHPRP,-0.303
19,RRIRFRPPRLPRPRPRPPPLPRP,1.38
20,RRIRKRPPRLPRPRPRPFCYPRP,-0.14
21,RRIRPRPPRLPRPRPRPEGQPRP,0.798
22,RRIRQRPPRLPRPRPRPSLGPRP,-0.162
23,RRIRARPPRLPRPRPRPPCDPRP,0.506
24,RRIRGRPPRLPRPRPRPANGPRP,0.378
25,RRIRWRPPRLPRPRPRPHMRPRP,0.494

row,Sequence,shrunken log2 fold change
1,RRIRKRPPRLPRPRPRPHRHPRP,0.023
2,RRIRIRPPRLPRPRPRPEATPRP,0.511
3,RRIRTRPPRLPRPRPRPNCKPRP,-0.218
4,RRIRQRPPRLPRPRPRPVMGPRP,0.0224
5,RRIRYRPPRLPRPRPRPKQLPRP,0.0588
6,RRIRRRPPRLPRPRPRPPRYPRP,0.978
7,RRIRDRPPRLPRPRPRPMWRPRP,0.309
8,RRIRVRPPRLPRPRPRPHFEPRP,0.193
9,RRIRFRPPRLPRPRPRPVHFPRP,-0.263
10,RRIRMRPPRLPRPRPRPSHCPRP,0.0171
11,RRIRSRPPRLPRPRPRPERKPRP,-0.0872
12,RRIRGRPPRLPRPRPRPVCPPRP,0.385
13,RRIRQRPPRLPRPRPRPKIGPRP,-0.0543
14,RRIRTRPPRLPRPRPRPPWHPRP,0.118
15,RRIRGRPPRLPRPRPRPQYTPRP,-0.0367
16,RRIRVRPPRLPRPRPRPGFFPRP,0.0758
17,RRIRIRPPRLPRPRPRPTMIPRP,-0.224
18,RRIRDRPPRLPRPRPRPFPLPRP,0.0517
19,RRIRKRPPRLPRPRPRPNRGPRP,0.0385
20,RRIRIRPPRLPRPRPRPLHIPRP,-1.21
21,RRIRVRPPRLPRPRPRPHNWPRP,-0.0818
22,RRIRERPPRLPRPRPRPEILPRP,-0.159
23,RRIRARPPRLPRPRPRPHATPRP,1.01
24,RRIRFRPPRLPRPRPRPMNTPRP,0.0693
25,RRIRKRPPRLPRPRPRPPEHPRP,0.197
